Test results as given in the DeepSol protein solubility set.

Test: soluble on expression in E. coli; label from the status in PepcDB or PDB records

Row | Sequence | soluble on expression in E. coli
1 | MGSDKIHHHHHHMARQNKRQSDDRELARKFEELLKEGTPGFFDVSVYESIIQYYLEGTKFRKAHRTCDIAMEQHPYSVEIMLLKVQVLMQMTQFEEALEILDRAQLYQPNDTDIQLLRANIMAQQDDFEGAIELLEEILTLAEEKDEIHYHMGVIYQDMGNFEESINHLKEAIMLNSQHEDAIYELSYSLEVLDRLEESIDFFKQLIEKDPYSHFAWFCLGVSYFKQGKLDEALDAYEFVIAINDKYSSAYYNIGECYVYKNEYEKALEYFFQTMDMEDKTADVFYNIGFCYEHLGMHPKAIEFYRKASKADAYFHEAYYGIGKCLEAQDKSYESIHFFKRALKLDEANAEYWLAKANAEYKTGNIISSLEAFEEACVLEPSNPEVWKNWSFVHYESGDMDKAIDLINAGIDEMPGNADLYYRAVAYLITAGRYKEAFNYLENALTLNFDSHTVLFEFFPKLETQKALFRIIDQYRNK | not soluble
2 | SPIIPEAARALYYNDGMFEGDIKLRAGRQPARVGAAILGDEYLWSGGVIPYTFAGVSGADQSAILSGMQELEEKTCIRFVPRTTESDYVEIFTSGSGCWSYVGRISGAQQVSLQANGCVYHGTILHALMHAIGFYHEHTRMDRDNYVTINYQNVDPSMTSNFDIDTYSRYVGEDYQYYSIMHYGKYSFSIQWGVLETIVPLQNGIDLTDPYDKAHMLQTDANQINNLYTNECSLR | soluble
3 | MSLTLGIAFVGSGFSAKFHLRGLVGVRNVEVKGVYSRNLNSSKEFAMLSEQLGLGKPKVYSDISKMLSDKEINAVWLTVPNDVHLEYTKLIAEEVSQGRSNIHGITIEKPLARNVKEAKEMIRLVEKAGLLHGYLENQIFMPSVVRAREAIWEIGSRNSGRPYLARAAEEHSGPHNSWFWRPTISGGGALIDMTCHSLEATRFLLTDPAKTKSSLKPKTVYAETKTLKWNKKEYAQYLKEKYNVDFLKEPAEDYALTIVTYEDDLGNSVLAETRTSWNYVGPGLRLSVEVLGPEYSVNINTLQSELSVFFSRNIKLPQSEAFVEKQNADQGLMPIILDEAVVYGYQGEDRHMVESFISRKMPFENWYDGLLIVQLMMHAYLSAENGRKISFDPQKVEDFIPKVARGLYSAEGHHHHHH | soluble
4 | MGKKMVVALGGNAILSNDASAHAQQQALVQTSAYLVHLIKQGHRLIVSHGNGPQVGNLLLQQQAADSEKNPAMPLDTCVAMTQGSIGYWLSNALNQELNKAGIKKQVATVLTQVVVDPADEAFKNPTKPIGPFLTEAEAKEAMQAGAIFKEDAGRGWRKVVPSPKPIDIHEAETINTLIKNDIITISCGGGGIPVVGQELKGVEAVIDKDFASEKLAELVDADALVILTGVDYVCINYGKPDEKQLTNVTVAELEEYKQAGHFAPGSMLPKIEAAIQFVESQPNKQAIITSLENLGSMSGDEIVGTVVTK | soluble
5 | MDRIRNDGVFYEIAYAESLMPATRKNTLFNGRVLIRSLKSKNIIFSSGAETMLDLRSPVDVMNMSLLWGVANNEARKMISGFPKNLLLQAECRGTGNGDVCSMKLSDAEKLAGNGEEEEQDGASEEKVVVGKEEEAEKVKAPPIEVRMNHSQYQALLQATKNANDMMKKIKASKAASSS | not soluble
6 | MGSDKIHHHHHHMIFFNKDEQLENIGNGILDATWAAFPTLARNQIALTWVVYDPPVRVNTGGALTPNAFWDHPVRGFTYRGVERIYPASVVKLFYLVAVNEWLEKGMSQTSKELERALRDMIVDSSNDATSLVVDILSGTTSGPELPTGPFETWKYQRNIVNRYYQSLGWEEMETINVCQKTWGDGPYGRERAFAGELLENRNMLTTNAIARLLHSIVGGVAVSSARSQAMMALLKRPLNDLPTDTEENQVTGFLGGGLPQNAQIWSKAGWTSQVRHDAAYIELPEQRPYLLVVFTEGKAQAKSQAILPFVSQQVADAISSL | not soluble
7 | MIDTVSVVLFSKKSHIKIARSVLRDFLQMHESSDSLIVDMEIVLGEILANVIKHTYKNDETKRIIVSYTLKDEVFHMLVRDFGPPVDPTRLKPMPPDLENPREGGYGFYIISRVTDEFRVRPLRNGNLTVVKKKLR | soluble
8 | MGGPGETQIEADRRLLQDRIVKLEKELEQVVRTRQLHRAKRRKVPHPIVALVGYTNAGKSTLFNRITGAGVLAEDMLFATLDPTLRRMKLPHGRTVILSDTVGFISDLPTHLVAAFRATLEEVLEADLVLHVRDMSDPDNAAQSADVLRILGDLGIDEKEAEKRIIEVWNKVDRLEPEAHDAIMQRAEGRSDIRAVSAITGEGVDALMEEISKRLSGVLTETTVVLSVEQLPLISWVYSNSIVDNREDHEDGSVALDVRLSEAQAVELERKLGKTAGREREDWERAAALEHHHHHH | not soluble
9 | TGIEQLEFQRESSVSTTLQGVCEPILAILVQGKKEALLCDETYRYSAAQYLVVSVDLPLSAFIVEATPEKPYLGFKLNLDPRQLCDIITAQTNVIEEKKNSVRGLFVSTIDAPLLDCAMRLTRLLDTPQDIPILAPMIIREIYYRLLMGEQGEAV | not soluble
10 | MAHHHHHHMVIFDDVENSNRVGGNEGGIRPIFVQLTPNAPLPSEEYLRLVALSKAPPPPDSEGSTLHSARNCRERSARVNGRRSPTKTNVRPRPPVTATQKWGDNAMSLINSKEEAVQRHEFALHVRGARYCRLLETMLDSSDLQLEPLHYDPKDPNMGRRPNGTEGNPANSLPPVILPQATQKGCVALFTYLDLITKRVPSMLSKPLRAPLEELVQPWELEFLLYSCMGDDVRNAITHIDEDGTADKRGRAPTNDTRPSYYSTILEKAPRSVDLLLEVALLSDFLLVEPLRQLTCAFIASLALNASSEEELLQLSGLQRPMTEDELEPLYYQFPFLRPDNHAKN | not soluble
11 | AMASASLCFLETENISKMAQILVDRCVEITNASFGFLYELVFGGDARILAVSSTAAVPAGGLCAQVKGHIEREGFFLVTPSDGLLFEPVKAGTTVLTNNPTTLDHLICRDSGNLGQINSFLGTPLKVGSRVVGMIGLTDRPDGFTDMERREIEAFAQTAALALHSARAEIEHKK | not soluble
12 | MGSDKIHHHHHHMYPQRIEPQPGQESVWDYPRPPRLEDTSKHIQIIFNGVIIADTQNAKRVLETSHPPSYYIPPGDIKMEHLIPTPQSSFCEWKGLAGYYTIRVGDKEVQNAAWFYPNPTTAFASLRDHVAFYAHLMDACYVDGDQVEPQPGNFYGGWITKDVVGPFKGIPGSWGW | not soluble
13 | MAHHHHHHMKKRTPLVGKRSYFTSLYDTKTEKTKLISEMDDLYDHILTSNWNDSVHLVLNVSIWEGILHSIEARIKPYEQDEDILKKKKMINEMFDVLFILEDLRDHVNELLEQSSRASGLAGTYILASFKIENMVEHIEFLKAKYDELLLKYPLYKYQIDMVLGKGLALLRQRYTFEWRHMHDFFF | not soluble
14 | MAHHHHHHMPVSHHEGCGCKNSDEVLKGGEFLLKYINIDKVTALNEKTHGSCRKILKSYDNRLSPDNCESDVDHELIINIPFNSPCKISSLFLIGGEEGTYPRKIKIFSNREDIDFGNINDFKCVQELELSQDFHGSIEYPLKVTSLFNVSYLTLYFYENYGADTTKIFYIGLKGVGTNYIRKAVETVYEASPNLSDHKIEGSSKAAHFRFDAF | soluble
15 | MHHHHHHSSGLVPRGSGMKETAAAKFERQHMDSPDLGTDDDDKAMGCQKAVSPAAETAAVSPSVDAARLEPRVEERDGFWVLKEEFRSGINPAEKVKIEKDPMKLFIEDGISDLATLSMEEVDKSKHNKDDIDVRLKWLGLFHRRKHHYGRFMMRLKLPNGVTTSEQTRYLASVIKKYGKDGCADVTTRQNWQIRGVVLPDVPEIIKGLESVGLTSLQSGMDNVRNPVGNPLAGIDPHEIVDTRPFTNLISQFVTANSRGNLSITNLPRKWNPCVIGSHDLYEHPHINDLAYMPATKNGKFGFNLLVGGFFSIKRCEEAIPLDAWVSAEDVVPVCKAMLEAFRDLGFRGNRQKCRMMWLIDELGMEAFRGEVEKRMPEQVLERASSEELVQKDWERREYLGVHPQKQQGLSFVGLHIPVGRLQADEMEELARIADVYGSGELRLTVEQNIIIPNVENSKIDSLLNEPLLKERYSPEPPILMKGLVACTGSQFCGQAIIETKARALKVTEEVQRLVSVTRPVRMHWTGCPNSCGQVQVADIGFMGCMTRDENGKPCEGADVFVGGRIGSDSHLGDIYKKAVPCKDLVPVVAEILINQFGAVPREREEAE | soluble
16 | MGSDKIHHHHHHMTTRLQDIIQPEIFTEYVVQRTTEKSALVQSGIIERNAEFDALASGPNTLVNMPFWNDLTGDSEVIRDEGNLTAGKITSGKDVARKQGRARMWGASGLSALLSGDDPMRAIADLVADYWIRQDQKMLLATLEGIFNSESMADKVLDITGEPGSDALLDGDSFIDAGQLMGDAKDLLTGVMMHSAVEAYLAKRQLIEYVQEADQTDRIPYFMNKRVIVDDAMPYDTQTKEGVIYLFGTGAIASGVGSHPNILPTEVDRNSQSSSGEDFLINRRIQILHPRGVKWTENNVSDVFPTNEELADGSNWERVYEPKAIRIVKFKFKTELDVDGA | not soluble
17 | AIALVGPAPTTDGSAENTLNEKRLVHGSIAFWLGPRAPQTKTHRWTVYVRGARDPLEDLSLYIQKVEFVLHESFADPVRVVKEPPFCLTEHGWGEFEVIIRLFPISDPDKPVEMYHPLRLFPSVGQELTEKPVVSEHLDVLVFSQPAPEVERALHRSDVARMPSDCWGDLMPLFGGDLHQVEEEDLRKVQQARERVRQQIQATRLQYEALTAELARARTHALHRELS | soluble
18 | NAMYTITDIAPTDAEFIALIAALDAWQETLYPAESNHLLDLSQLPPQTVIALAIRSPQGEAVGCGAIVLSEEGFGEMKRVYIDPQHRGQQLGEKLLAALEAKARQRDCHTLRLETGIHQHAAIALYTRNGYQTRCAFAPYQPDPLSVFMEKPLFADLRSAAL | soluble
19 | GMQGKKFISPGAWFSMNYPSDWNEFEDGEGSFLFYNPDVWTGNFRISAFKGNASYGKDAIRQELKENDSASLVKIGTWDCAYSKEMFQEEGTYYTSHLWITGTGNIAFECSFTVPKGGSAKEAEEVIATLEARKEGEKYPAELIPVRLSEIYQINEGYEWVVSTVKQELKKDFQGVEEDLEKIQQVIDSGKISPKKKDEWLAIGITVCAILTNEVEGMEWKTLIDGNREVPVLEYQGRTIDPMKIAWSKVKAGQPCNIAEAYQSAIDHH | soluble
20 | MGSDKIHHHHHHMFEIKTDDFEGIEIVKLINTVSGEYASIIPSFGGNIHELVLQKHNILHDVIYTNKNKEELSGFYSNLYRGAKLNPFSNRIDKGSYIFENISYSIPLNDAGIHALHGFVWNKPFSITASKTSFEFATLTLSYTHPKDSADFPFSYTLLVTYKLCIEGLMVTTQITNTSPTAIPMGDGWHPYLTLGSSINTLKLQIPSVQKIETTDTLIPTGKIIEDISFFEPALLGERELDNAFVLDSSVEKAETLLFDEEEDLTLVVWQQTDTYPFVHVYTPSDRMSVAIEPCSAIPDAFNRNMIETTLKPAEKKSYVFGIQLR | not soluble
21 | VILKEEFRGVIIKQGCLLKQGHRRKNWKVRKFILREDPAYLHYYDPAGAEDPLGAIHLRGCVVTSVESNSNGRKSEEENLFEIITADEVHYFLQAATPKERTEWIKAIQMASRTGK | soluble
